Assays:
Assay in all cases: EMSA; with POLγB; 10 mM Mg2+, 3 mM dCTP, 0.3 mM ddGTP; EMSA: 15 µl, 10 fmol DNA, 450 fmol POLγA, 1.8 pmol POLγB where indicated; 20 mM Tris-HCl pH 7.5, 1 mM DTT, 0.1 mg/ml BSA, 10 mM MgCl2, 10% glycerol, 3 mM dCTP
[1] = molecular target: POLγA H277L;POLγB (human?;human?, UniProt P54098;Q9UHN1 26-1239;25-485, H277L|)
[2] = molecular target: POLγA R275Q;POLγB (human?;human?, UniProt P54098;Q9UHN1 26-1239;25-485, R275Q|)
[3] = molecular target: POLγA G268A;POLγB (human?;human?, UniProt P54098;Q9UHN1 26-1239;25-485, G268A|)
Chain of POLγA G268A;POLγB (P54098 26-1239 G268A, chain 1 of 2): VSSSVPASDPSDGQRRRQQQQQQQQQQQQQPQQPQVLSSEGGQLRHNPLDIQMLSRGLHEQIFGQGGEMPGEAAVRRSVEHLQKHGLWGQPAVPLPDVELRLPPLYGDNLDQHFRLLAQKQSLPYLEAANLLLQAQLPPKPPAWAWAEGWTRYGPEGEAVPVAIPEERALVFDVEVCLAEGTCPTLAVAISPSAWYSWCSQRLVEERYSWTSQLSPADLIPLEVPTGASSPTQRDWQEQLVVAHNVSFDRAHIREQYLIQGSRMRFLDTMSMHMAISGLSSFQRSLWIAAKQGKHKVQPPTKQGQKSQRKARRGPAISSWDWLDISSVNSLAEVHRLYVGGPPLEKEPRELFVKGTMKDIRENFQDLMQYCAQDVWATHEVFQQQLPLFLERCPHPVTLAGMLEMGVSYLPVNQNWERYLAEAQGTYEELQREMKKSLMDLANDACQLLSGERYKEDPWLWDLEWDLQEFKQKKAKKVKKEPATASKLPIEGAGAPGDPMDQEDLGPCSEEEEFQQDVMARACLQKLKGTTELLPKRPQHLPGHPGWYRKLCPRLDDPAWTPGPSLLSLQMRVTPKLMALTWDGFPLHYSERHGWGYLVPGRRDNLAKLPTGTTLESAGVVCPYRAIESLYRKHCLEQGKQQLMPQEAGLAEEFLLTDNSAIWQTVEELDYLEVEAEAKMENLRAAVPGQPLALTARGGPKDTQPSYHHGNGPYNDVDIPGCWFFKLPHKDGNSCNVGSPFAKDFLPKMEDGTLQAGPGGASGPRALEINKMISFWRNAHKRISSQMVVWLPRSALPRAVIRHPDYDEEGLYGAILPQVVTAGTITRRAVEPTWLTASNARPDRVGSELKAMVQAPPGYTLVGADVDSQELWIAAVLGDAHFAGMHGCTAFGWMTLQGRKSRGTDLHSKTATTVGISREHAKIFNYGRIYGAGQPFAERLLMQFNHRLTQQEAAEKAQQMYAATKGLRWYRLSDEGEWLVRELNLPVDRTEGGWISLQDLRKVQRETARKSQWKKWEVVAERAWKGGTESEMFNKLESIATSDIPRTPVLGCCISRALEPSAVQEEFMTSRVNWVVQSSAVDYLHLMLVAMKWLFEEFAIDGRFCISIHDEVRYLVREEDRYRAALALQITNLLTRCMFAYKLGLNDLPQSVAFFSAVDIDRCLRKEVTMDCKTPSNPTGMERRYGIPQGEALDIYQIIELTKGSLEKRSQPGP
Chain of POLγA G268A;POLγB (Q9UHN1 25-485, chain 2 of 2): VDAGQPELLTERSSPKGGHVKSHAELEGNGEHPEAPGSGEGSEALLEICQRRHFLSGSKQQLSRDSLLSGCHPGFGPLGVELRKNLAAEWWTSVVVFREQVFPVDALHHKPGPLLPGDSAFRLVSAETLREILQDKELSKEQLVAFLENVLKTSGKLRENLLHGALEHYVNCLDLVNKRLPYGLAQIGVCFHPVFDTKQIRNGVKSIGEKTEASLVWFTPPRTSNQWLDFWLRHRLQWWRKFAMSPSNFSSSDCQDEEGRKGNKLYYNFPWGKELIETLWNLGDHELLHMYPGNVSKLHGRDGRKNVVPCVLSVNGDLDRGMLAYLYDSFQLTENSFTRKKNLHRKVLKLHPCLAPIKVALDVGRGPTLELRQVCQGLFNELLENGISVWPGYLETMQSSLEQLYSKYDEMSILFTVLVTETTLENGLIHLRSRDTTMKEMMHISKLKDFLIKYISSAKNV

[4] = molecular target: POLγA L304R;POLγB (human?;human?, UniProt P54098;Q9UHN1 26-1239;25-485, L304R|)
Chain of POLγA L304R;POLγB (P54098 26-1239 L304R, chain 1 of 2): as the sequence (P54098 26-1239 G268A, chain 1 of 2) above, with A243G, L279R counted along it
Chain of POLγA L304R;POLγB (Q9UHN1 25-485, chain 2 of 2): as the sequence (Q9UHN1 25-485, chain 2 of 2) above

[5] = molecular target: POLγA S305R;POLγB (human?;human?, UniProt P54098;Q9UHN1 26-1239;25-485, S305R|)
Chain of POLγA S305R;POLγB (P54098 26-1239 S305R, chain 1 of 2): as the sequence (P54098 26-1239 G268A, chain 1 of 2) above, with A243G, S280R counted along it
Chain of POLγA S305R;POLγB (Q9UHN1 25-485, chain 2 of 2): as the sequence (Q9UHN1 25-485, chain 2 of 2) above

[6] = molecular target: POLγA R232H;POLγB (human?;human?, UniProt P54098;Q9UHN1 26-1239;25-485, R232H|)
Chain of POLγA R232H;POLγB (P54098 26-1239 R232H, chain 1 of 2): as the sequence (P54098 26-1239 G268A, chain 1 of 2) above, with R207H, A243G counted along it
Chain of POLγA R232H;POLγB (Q9UHN1 25-485, chain 2 of 2): as the sequence (Q9UHN1 25-485, chain 2 of 2) above

[7] = molecular target: POLγA G303R;POLγB (human?;human?, UniProt P54098;Q9UHN1 26-1239;25-485, G303R|)
Chain of POLγA G303R;POLγB (P54098 26-1239 G303R, chain 1 of 2): as the sequence (P54098 26-1239 G268A, chain 1 of 2) above, with A243G, G278R counted along it
Chain of POLγA G303R;POLγB (Q9UHN1 25-485, chain 2 of 2): as the sequence (Q9UHN1 25-485, chain 2 of 2) above

Measured: binding result

Chain of POLγA R275Q;POLγB (P54098 26-1239 R275Q, chain 1 of 2): as the sequence (P54098 26-1239 G268A, chain 1 of 2) above, with A243G, R250Q counted along it
Chain of POLγA R275Q;POLγB (Q9UHN1 25-485, chain 2 of 2): as the sequence (Q9UHN1 25-485, chain 2 of 2) above
Chain of POLγA H277L;POLγB (P54098 26-1239 H277L, chain 1 of 2): as the sequence (P54098 26-1239 G268A, chain 1 of 2) above, with A243G, H252L counted along it
Chain of POLγA H277L;POLγB (Q9UHN1 25-485, chain 2 of 2): as the sequence (Q9UHN1 25-485, chain 2 of 2) above

B1: primed DNA template (20/35-mer) (dsDNA)
DNA 1: CGGTCGAGTCTAGAGGAGCC
DNA 2: GACTACGTCTATCCGGGCTCCTCTAGACTCGACCG
binds: all assays above
